Results: IntAct's records for PubMed 17280616

B1: Maternal embryonic leucine zipper kinase (Homo sapiens), Q14680 (parent)
chain: MKDYDELLKYYELHETIGTGGFAKVKLACHILTGEMVAIKIMDKNTLGSDLPRIKTEIEALKNLRHQHICQLYHVLETANKIFMVLEYCPGGELFDYIISQDRLSEEETRVVFRQIVSAVAYVHSQGYAHRDLKPENLLFDEYHKLKLIDFGLCAKPKGNKDYHLQTCCGSLAYAAPELIQGKSYLGSEADVWSMGILLYVLMCGFLPFDDDNVMALYKKIMRGKYDVPKWLSPSSILLLQQMLQVDPKKRISMKNLLNHPWIMQDYNYPVEWQSKNPFIHLDDDCVTELSVHHRNNRQTMEDLISLWQYDHLTATYLLLLAKKARGKPVRLRLSSFSCGQASATPFTDIKSNNWSLEDVTASDKNYVAGLIDYDWCEDDLSTGAATPRTSQFTKYWTESNGVESKSLTPALCRTPANKLKNKENVYTPKSAVKNEEYFMFPEPKTPVNKNQHKREILTTPNRYTTPSKARNQCLKETPIKIPVNSTGTDKLMTGVISPERRCRSVELDLNQAHMEETPKRKGAKVFGSLERGLDKVITVLTRSKRKGSARDGPRRLKLHYNVTTTRLVNPDQLLNEIMSILPKKHVDFVQKGYTLKCQTQSDFGKVTMQFELEVCQLQKPDVVGIRRQRLKGDAWVYKRLVEDILSSCKV

Variants of: B1
Details: with BCL2L14, Q9BZR8
BCL2L14, Q9BZR8, sequence (Q9BZR8 whole entry): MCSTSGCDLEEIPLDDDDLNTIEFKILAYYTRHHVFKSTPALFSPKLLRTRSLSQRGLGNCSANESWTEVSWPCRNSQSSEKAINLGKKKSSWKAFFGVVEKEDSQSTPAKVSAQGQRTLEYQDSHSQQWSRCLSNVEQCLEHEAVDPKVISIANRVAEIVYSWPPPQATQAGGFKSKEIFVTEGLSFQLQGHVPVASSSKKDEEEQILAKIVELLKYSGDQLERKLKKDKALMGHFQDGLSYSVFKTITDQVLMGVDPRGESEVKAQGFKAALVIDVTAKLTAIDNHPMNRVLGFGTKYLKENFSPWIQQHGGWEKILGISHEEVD

effect of a mutation on the interaction	Variant
disrupting interaction	D150A
